Experimental data reported in the supplement of paper PMC10724198.
± gives the standard deviation of the averaged measurements.

System: Saccharomyces cerevisiae
Assay: protein stability index of tFT-peptide fusion (C-terminal peptide) (PSI (0-1 scale)); higher = more stable (slower turnover)
Conditions: genetic background: wild type; temperature: 30 C
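Note: PSI is a weighted mean of sequencing reads over stability bins, variants kept only with over 10 reads, mCherry proximal and sfGFP distal, peptide attached via GGGS linker.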

Row | Sequence | protein stability index
1 | SGVRGRGSFWSV | 0.664 ± 0.04
2 | KQTICNTGPQWV | 0.6267 ± 0.0022
3 | VVGHGLAGCKVG | 0.668 ± 0.037
4 | EKVWTLTGLSHL | 0.722 ± 0.04
5 | GGYYIFGLCDLL | 0.625 ± 0.075
6 | VVADNGASGWAW | 0.7579 ± 0.0033
7 | RLRRLYSLRTYL | 0.543 ± 0.033
8 | GCSLWAVRTWGL | 0.699 ± 0.01
9 | LSSQCIVQLFRA | 0.64 ± 0.025
10 | LFHHLAPRPAPP | 0.698 ± 0.051
11 | GWMGGFLVMSID | 0.686 ± 0.037
12 | YPYRKRTIGVRT | 0.595 ± 0.015
13 | KINELGYMNLKM | 0.716 ± 0.013
14 | WAGGGGGRVCGW | 0.799 ± 0.11
15 | VFNLSIPLPSFP | 0.707 ± 0.046
16 | LPVFVIGEFLLV | 0.49 ± 0.037
17 | DGARECRDDVCS | 0.675 ± 0.017
18 | PPLLPPLPFPPP | 0.74 ± 0.076
19 | PAPPLPPLPLLP | 0.684 ± 0.013
20 | SGLVCDGSSGGV | 0.635 ± 0.0083
21 | LIFLPPSPLPLS | 0.709 ± 0.085
22 | TTQPQVGHHRTS | 0.715 ± 0.021
23 | NTVLPTPTMSPP | 0.702 ± 0.04
24 | PRSPPLTHVSLH | 0.697 ± 0.043
25 | PMYKYKTSQKDL | 0.6567 ± 0.0057
26 | GSLFLRQHTLLR | 0.645 ± 0.0077

Row | Sequence | protein stability index
27 | WECGRVSVIRRC | 0.594 ± 0.019
28 | LRLDFPPARPHS | 0.697 ± 0.044
29 | NGMKDKTKIAKI | 0.701 ± 0.008
30 | RLILLPLFLSDS | 0.729 ± 0.092
31 | VCVVALCLPHLP | 0.583 ± 0.012
32 | PVPPPPPPPLPP | 0.6 ± 0.03
33 | GAGGARRLAVGQ | 0.655 ± 0.014
34 | GKECLIRKSHDG | 0.674 ± 0.011
35 | PTPPSPTPLPAT | 0.679 ± 0.043
36 | RKTSIKNKKKKI | 0.693 ± 0.059
37 | SPPFLPVPASSL | 0.709 ± 0.027
38 | SPPPPVPSAGPL | 0.7 ± 0.042
39 | FVGSSFELRLPG | 0.692 ± 0.057
40 | DGGGGGGAPRVR | 0.715 ± 0.11
41 | HSQPPRRPSTNP | 0.792 ± 0.033
42 | HVLHKPYRPGRP | 0.601 ± 0.0069
43 | LNQHEQKRKNEG | 0.724 ± 0.098
44 | PDGREQLVNGVT | 0.6359 ± 0.0019
45 | ETLEKYGDPMRD | 0.624 ± 0.0088
46 | KKTLIQKEQIRR | 0.644 ± 0.022
47 | PHPATSPVARPP | 0.678 ± 0.014
48 | PAPRFPFLFHPL | 0.776 ± 0.035
49 | PPRSPPLPPGLP | 0.558 ± 0.039
50 | PLPAFPRLAIQP | 0.691 ± 0.021
51 | TDWLMQRILRPF | 0.718 ± 0.028
52 | HPNGVMIGKNPT | 0.702 ± 0.023

Row | Sequence | protein stability index
53 | GNRNGEFINTQI | 0.665 ± 0.027
54 | ATSPTPALPPLL | 0.743 ± 0.14
55 | GSLRRSHYLLRA | 0.588 ± 0.086
56 | KKRRTCPNRRDK | 0.554 ± 0.036
57 | GSQHSPRPFFFQ | 0.72 ± 0.038
58 | PPHLPPPRPKPP | 0.592 ± 0.028
59 | IPSPYPPPAPLH | 0.666 ± 0.011
60 | SLPSSVAFLFPR | 0.802 ± 0.17
61 | SPTAPPPRPFPP | 0.679 ± 0.042
62 | DTSENSVKFTKV | 0.733 ± 0.075
63 | PPSPPIPPPPAP | 0.732 ± 0.053
64 | PPRSLPPPPFPF | 0.749 ± 0.01
65 | GRSGGVGVLWGG | 0.728 ± 0.017
66 | KKRHERNYLVQS | 0.662 ± 0.066
67 | WSPFSLISLSPP | 0.725 ± 0.099
68 | GSLEGGGSGGGW | 0.6743 ± 0.0048
69 | VCGSRAVRRTEL | 0.712 ± 0.07
70 | DKGTDKDDVKIM | 0.686 ± 0.011
71 | GGFASGLCGGVI | 0.728 ± 0.087
72 | LIPLVFAPSLVL | 0.769 ± 0.093
73 | PLPPSLRPALSP | 0.7188 ± 0.00078
74 | LSYGQKARIKRE | 0.703 ± 0.075
75 | GVWLWVLGACRR | 0.657 ± 0.057
76 | SPPRHPPPASPA | 0.7128 ± 0.0035
77 | SAGDLFVFEYLG | 0.6759 ± 0.0024
78 | VCAVPSILPPPP | 0.6902 ± 0.0061

Row | Sequence | protein stability index
79 | RPLTSVTPLPTL | 0.6988 ± 0.0067
80 | GFYPGRSKGCLG | 0.73 ± 0.05
81 | GPFPPCVVPSSS | 0.643 ± 0.048
82 | SVGKRRGVGVWN | 0.7007 ± 0.0031
83 | RSTTDVADNSRP | 0.631 ± 0.032
84 | GLVLVGGGGGAV | 0.577 ± 0.051
85 | GRCLWGRVGSVM | 0.707 ± 0.018
86 | APPPLPPLPPSP | 0.727 ± 0.2
87 | SLPPAHPPPPRP | 0.693 ± 0.026
88 | IILVVLSRLYVI | 0.5644 ± 0.003
89 | GVPVGVDSFHGV | 0.66848 ± 4.1e-05
90 | CLTSSIFSRSFA | 0.632 ± 0.04
91 | ALCVPRTGPFFI | 0.737 ± 0.02
92 | IVEKAVAKGIKE | 0.6767 ± 0.005
93 | WGRIVRDFHCGG | 0.614 ± 0.0083
94 | ELGVGVLDRGCL | 0.608 ± 0.22
95 | YRSVLGREEQLI | 0.7 ± 0.057
96 | SPRRSLPPAGFT | 0.71 ± 0.017
97 | RVVPTKTIAGSA | 0.6502 ± 0.0014
98 | WLPTTPLPPLSP | 0.703 ± 0.018
99 | SPAPPPGVPPSR | 0.687 ± 0.03
100 | PGVAGSLSLLRR | 0.722 ± 0.097
101 | SVGGSLGAGGGG | 0.682 ± 0.064
